Results as given in patent US12404328 (CULLINAN MANAGEMENT, dated 2025).
Each block holds one binder with its values, some of them ahead of it.

Key:
[1] = biological target: T1, dimeric CD19 extracellular domain fused with human IgG1 Fc (human, UniProt P15391 20-291, limits assumed); test: SPR as printed, ForteBio instrument (per Estep et al. 2013); dimeric CD19 extracellular domain-human IgG1 Fc; dimeric CD19 protein (IgG1 Fc fusion)
T1 construct: extracellular domain; also called dimeric CD19 protein; not shown: human IgG1 Fc
T1 sequence (looked up): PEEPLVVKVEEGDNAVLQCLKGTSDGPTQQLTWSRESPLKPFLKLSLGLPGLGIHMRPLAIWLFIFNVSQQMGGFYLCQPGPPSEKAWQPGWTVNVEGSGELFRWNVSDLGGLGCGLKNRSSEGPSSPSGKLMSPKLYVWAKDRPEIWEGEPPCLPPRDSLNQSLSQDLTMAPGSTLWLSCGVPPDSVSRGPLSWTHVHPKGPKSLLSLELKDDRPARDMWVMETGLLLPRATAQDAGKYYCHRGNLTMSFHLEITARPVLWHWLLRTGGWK
Method: (§1) As noted above, the constructs produced contained an anti-CD19 scFv having the amino acid sequence set forth in SEQ ID NO: 9 or 18. The binding affinity of the two CD19 binding domains to CD19 were measured by SPR using a monomeric CD19 extracellular domain and a dimeric CD19 extracellular domain fused with human IgG1 Fc. Binding kinetic parameters were measured using an instrument (available under the tradename ForteBio™ from Pall Corporation®) generally as previously described (see, Estep et al. (2013) MAbs, 5 (2): 270-78).

[2] = biological target: T2, monomeric CD19 extracellular domain (UniProt P15391 20-291, limits assumed); test: SPR as printed, ForteBio instrument (per Estep et al. 2013); monomeric CD19 extracellular domain; monomeric CD19 protein
T2 construct: extracellular domain; also called monomeric CD19 protein
T2 sequence (looked up): T1 sequence (looked up)
Method: as §1

- Kd [1]: 15 nM
- Kd [2]: 11 nM
B1: CD19 binding domain having the sequence of SEQ ID NO: 18 (scFv)
scFv: QVQLQESGPGLVKPSQTLSLTCTVSGGSISTSGMGVGWIRQHPGKGLEWIGHIWWDDDKRYNPALKSRVTISVDTSKNQFSLKLSSVTAADTAVYYCARMELWSYYFDYWGQGTLVTVSSGGGGSGGGGSGGGGSEIVLTQSPATLSLSPGERATLSCSASSSVSYMHWYQQKPGQAPRLLIYDTSKLASGIPARFSGSGSGTDFTLTISSLEPEDFAVYYCFQGSVYPFTFGQGTKLEIKR
notes: also called SG mAb scFv

- Kd [1]: 5 nM
- Kd [2]: 7 nM
B2: CD19 binding domain having the sequence of SEQ ID NO: 9 (scFv)
scFv: QVQLVQSGAEVKKPGASVKVSCKASGYTFTDYIMHWVRQAPGQGLEWMGYINPYNDGSKYTEKFQGRVTMTSDTSISTAYMELSRLRSDDTAVYYCARGTYYYGPQLFDYWGQGTTVTVSSGGGGSGGGGSGGGGSDIVMTQTPLSLSVTPGQPASISCKSSQSLETSTGTTYLNWYLQKPGQSPQLLIYRVSKRFSGVPDRFSGSGSGTDFTLKISRVEAEDVGVYYCLQLLEDPYTFGQGTKLEIK
notes: also called Roche mAb scFv
